Assay results as given in article PMC10786891, “Massively parallel profiling of RNA-targeting CRISPR-Cas13d”.
Where a chain is given by its changes, count along the chain named.

T1: EsCas13d, nuclease-dead (Eubacterium siraeum, UniProt B0MS50, R295A;H300A;R849A;H854A)
T1 sequence: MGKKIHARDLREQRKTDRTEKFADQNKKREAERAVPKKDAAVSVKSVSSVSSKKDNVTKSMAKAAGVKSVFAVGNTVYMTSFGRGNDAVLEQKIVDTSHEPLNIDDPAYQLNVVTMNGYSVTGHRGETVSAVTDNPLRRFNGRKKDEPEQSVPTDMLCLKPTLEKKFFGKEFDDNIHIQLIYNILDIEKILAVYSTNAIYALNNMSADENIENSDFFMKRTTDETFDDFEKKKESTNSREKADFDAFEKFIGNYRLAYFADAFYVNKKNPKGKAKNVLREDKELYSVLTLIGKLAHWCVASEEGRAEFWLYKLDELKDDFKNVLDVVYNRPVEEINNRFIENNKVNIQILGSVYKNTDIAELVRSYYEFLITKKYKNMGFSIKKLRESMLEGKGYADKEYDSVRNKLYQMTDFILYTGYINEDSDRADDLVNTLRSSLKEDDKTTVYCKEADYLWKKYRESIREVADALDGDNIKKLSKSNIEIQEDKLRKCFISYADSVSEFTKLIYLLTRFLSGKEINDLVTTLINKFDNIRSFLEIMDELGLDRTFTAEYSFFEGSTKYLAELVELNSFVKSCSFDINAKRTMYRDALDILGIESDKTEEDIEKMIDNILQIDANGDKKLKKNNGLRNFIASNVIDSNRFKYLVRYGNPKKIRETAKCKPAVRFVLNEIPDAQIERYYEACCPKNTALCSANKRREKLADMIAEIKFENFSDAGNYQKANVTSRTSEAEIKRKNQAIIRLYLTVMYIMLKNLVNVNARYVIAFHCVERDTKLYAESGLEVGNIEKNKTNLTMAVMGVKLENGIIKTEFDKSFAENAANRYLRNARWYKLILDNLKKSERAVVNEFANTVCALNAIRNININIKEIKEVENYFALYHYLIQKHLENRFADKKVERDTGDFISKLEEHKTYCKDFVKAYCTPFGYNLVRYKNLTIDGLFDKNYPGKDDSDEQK

B1: target 2 MT 5'PFS GCG 3'PFS AUG (mixed)
RNA 1: CACCCGUGCAAAAUUGCAGGGGUCUAAAACCUUCUCCAAAUUGUUUCAUCCU
RNA 2: GGGAAUGGAUCCACAUCUACGAAUUCGCGAGGAUGAAACAAUUUGGAGAAGAUGAGAUCGGAAGAGCACACGU
B2: target 2 MT 5'PFS CAC 3'PFS UAU (mixed)
RNA 1: B1 RNA 1
RNA 2: B1 RNA 2 with G27C, C28A, G29C, A52U, U53A, G54U
B3: target 2 MT 5'PFS GCG 3'PFS AUC (mixed)
RNA 1: B1 RNA 1
RNA 2: B1 RNA 2 with G54C
B4: target 2 MT 5'PFS ACC 3'PFS CAG (mixed)
RNA 1: B1 RNA 1
RNA 2: B1 RNA 2 with G27A, G29C, A52C, U53A
B5: target 2 MT 5'PFS GCG 3'PFS AUA (mixed)
RNA 1: B1 RNA 1
RNA 2: B1 RNA 2 with G54A
B6: target 1 insG 3' of 22,insC 3' of 12 (mixed)
RNA 1: CACCCGUGCAAAAAUGCAGGGGUCUAAAACUGAGCGGAUAACCUCUCUAUGG
RNA 2: GGGAAUGGAUCCACAUCUACGAAUUCGUACGCAUAGAGAGGCUUAUCCGCUCACCGAGAUCGGAAGAGCACACGU
B7: target 2 MT 5'PFS CGC 3'PFS UCG (mixed)
RNA 1: B1 RNA 1
RNA 2: B1 RNA 2 with G27C, C28G, G29C, A52U, U53C
B8: target 2 MT 5'PFS UGU 3'PFS UGU (mixed)
RNA 1: B1 RNA 1
RNA 2: B1 RNA 2 with G27U, C28G, G29U, A52U, U53G, G54U
B9: target 2 MT 5'PFS CGC 3'PFS UCC (mixed)
RNA 1: B1 RNA 1
RNA 2: B1 RNA 2 with G27C, C28G, G29C, A52U, U53C, G54C
B10: target 2 MT 5'PFS CUC 3'PFS AAU (mixed)
RNA 1: B1 RNA 1
RNA 2: B1 RNA 2 with G27C, C28U, G29C, U53A, G54U
B11: target 2 MT 5'PFS CGC 3'PFS UCA (mixed)
RNA 1: B1 RNA 1
RNA 2: B1 RNA 2 with G27C, C28G, G29C, A52U, U53C, G54A
B12: target 2 MT 5'PFS GCG 3'PFS UUC (mixed)
RNA 1: B1 RNA 1
RNA 2: B1 RNA 2 with A52U, G54C
B13: target 2 MT 5'PFS GCG 3'PFS UUA (mixed)
RNA 1: B1 RNA 1
RNA 2: B1 RNA 2 with A52U, G54A
B14: target 2 MT 5'PFS CAC 3'PFS UAC (mixed)
RNA 1: B1 RNA 1
RNA 2: B1 RNA 2 with G27C, C28A, G29C, A52U, U53A, G54C
B15: target 2 MT 5'PFS CAC 3'PFS UAA (mixed)
RNA 1: B1 RNA 1
RNA 2: B1 RNA 2 with G27C, C28A, G29C, A52U, U53A, G54A
B16: target 2 MT 5'PFS GUU 3'PFS AUU (mixed)
RNA 1: B1 RNA 1
RNA 2: B1 RNA 2 with C28U, G29U, G54U
B17: target 1 insA 3' of 12,insU 3' of 4 (mixed)
RNA 1: B6 RNA 1
RNA 2: GGGAAUGGAUCCACAUCUACGAAUUCGUACCAUAGAGAGGAUUAUCCGCUUCACCGAGAUCGGAAGAGCACACGU
B18: target 2 MT 5'PFS ACU 3'PFS UGU (mixed)
RNA 1: B1 RNA 1
RNA 2: B1 RNA 2 with G27A, G29U, A52U, U53G, G54U
B19: target 2 MT 5'PFS CAA 3'PFS CCG (mixed)
RNA 1: B1 RNA 1
RNA 2: B1 RNA 2 with G27C, C28A, G29A, A52C, U53C
B20: target 2 MT 5'PFS AGC 3'PFS AUG (mixed)
RNA 1: B1 RNA 1
RNA 2: B1 RNA 2 with G27A, C28G, G29C
B21: target 2 MT 5'PFS CAA 3'PFS CCA (mixed)
RNA 1: B1 RNA 1
RNA 2: B1 RNA 2 with G27C, C28A, G29A, A52C, U53C, G54A
B22: target 2 MT 5'PFS AGC 3'PFS AUA (mixed)
RNA 1: B1 RNA 1
RNA 2: B1 RNA 2 with G27A, C28G, G29C, G54A
B23: target 2 MT 5'PFS AGC 3'PFS AUC (mixed)
RNA 1: B1 RNA 1
RNA 2: B1 RNA 2 with G27A, C28G, G29C, G54C
B24: target 2 MT 5'PFS GUU 3'PFS AUG (mixed)
RNA 1: B1 RNA 1
RNA 2: B1 RNA 2 with C28U, G29U
B25: target 2 MT 5'PFS GUU 3'PFS AUA (mixed)
RNA 1: B1 RNA 1
RNA 2: B1 RNA 2 with C28U, G29U, G54A
B26: target 2 MT 5'PFS GUU 3'PFS AUC (mixed)
RNA 1: B1 RNA 1
RNA 2: B1 RNA 2 with C28U, G29U, G54C
B27: target 2 MT 5'PFS AGC 3'PFS AUU (mixed)
RNA 1: B1 RNA 1
RNA 2: B1 RNA 2 with G27A, C28G, G29C, G54U
B28: target 1 insC 3' of 14,insC 3' of 3 (mixed)
RNA 1: B6 RNA 1
RNA 2: B17 RNA 2 with G39C, A41G, U51C
B29: target 2 MT 5'PFS AGG 3'PFS UCU (mixed)
RNA 1: B1 RNA 1
RNA 2: B1 RNA 2 with G27A, C28G, A52U, U53C, G54U
B30: target 2 MT 5'PFS ACG 3'PFS UUC (mixed)
RNA 1: B1 RNA 1
RNA 2: B1 RNA 2 with G27A, A52U, G54C
B31: target 2 MT 5'PFS UCG 3'PFS UAG (mixed)
RNA 1: B1 RNA 1
RNA 2: B1 RNA 2 with G27U, A52U, U53A
B32: target 2 MT 5'PFS UCG 3'PFS UAA (mixed)
RNA 1: B1 RNA 1
RNA 2: B1 RNA 2 with G27U, A52U, U53A, G54A
B33: target 2 MT 5'PFS ACG 3'PFS AGA (mixed)
RNA 1: B1 RNA 1
RNA 2: B1 RNA 2 with G27A, U53G, G54A
B34: target 2 MT 5'PFS ACG 3'PFS AGC (mixed)
RNA 1: B1 RNA 1
RNA 2: B1 RNA 2 with G27A, U53G, G54C
B35: target 2 MT 5'PFS UCG 3'PFS UAU (mixed)
RNA 1: B1 RNA 1
RNA 2: B1 RNA 2 with G27U, A52U, U53A, G54U
B36: target 2 MT 5'PFS CGG 3'PFS CCA (mixed)
RNA 1: B1 RNA 1
RNA 2: B1 RNA 2 with G27C, C28G, A52C, U53C, G54A
B37: target 2 MT 5'PFS CGG 3'PFS CCC (mixed)
RNA 1: B1 RNA 1
RNA 2: B1 RNA 2 with G27C, C28G, A52C, U53C, G54C
B38: target 2 MT 5'PFS CGG 3'PFS CCG (mixed)
RNA 1: B1 RNA 1
RNA 2: B1 RNA 2 with G27C, C28G, A52C, U53C

These binders were tested against T1, EsCas13d, nuclease-dead (assay: crRNA (strand 1, pre-loaded); Mg2+; 40 mM Tris-HCl pH 7.5, 150 mM NaCl, 6 mM MgCl2, 1 mM DTT, 0.1% Tween-20, 0.2 mg/ml BSA; 25 C; 10 min per concentration, then washed). Details: tags: His6-TwinStrep-SUMO cleaved; N-terminal SNAP kept (SNAP-Surface 488); label: 3' end held by stalled T7 RNA polymerase.

In order of rising Kd:
1. B14  1.66 ± 0.25 nM
2. B2  1.87 ± 0.31 nM
3. B15  2.3 ± 0.4 nM
4. B10  2.32 ± 0.27 nM
5. B38  4.7 ± 0.4 nM
6. B4  5.1 ± 0.9 nM
7. B11  5.5 ± 1.7 nM
8. B34  6.4 ± 1.1 nM
9. B27  6.8 ± 1.2 nM
10. B22  7.1 ± 1.3 nM
11. B19  7.3 ± 2.9 nM
12. B33  7.8 ± 2.4 nM
13. B7  7.9 ± 1.1 nM
14. B18  8.1 ± 1 nM
15. B21  10 ± 5 nM
16. B3  10.1 ± 0.9 nM
17. B5  10.6 ± 2.1 nM
18. B23  10.9 ± 2.8 nM
19. B16  11.6 ± 1.4 nM
20. B20  12.6 ± 2.9 nM
21. B25  13.3 ± 1.9 nM
22. B29  13.8 ± 2.1 nM
23. B26  15 ± 1.2 nM
24. B32  15 ± 4 nM
25. B1  15.5 ± 2.1 nM
26. B30  16 ± 6 nM
27. B8  18.9 ± 2.7 nM
28. B37  ~19 nM
29. B24  19.6 ± 2.4 nM
30. B12  21 ± 4 nM
31. B13  21 ± 4 nM
32. B17  26.3 ± 1.7 nM
33. B31  27 ± 7 nM
34. B35  34 ± 14 nM
35. B36  37 ± 18 nM
36. B6  42 ± 6 nM
37. B28  45 ± 7 nM
38. B9  ~60 nM
